Laboratory results: article PMC9388126 (Proceedings of the National Academy of Sciences of the …, 2022)
Values belong to the molecule of their own block, whether it stands above or below them.

Assays:
[1] = biological target: clawed frog GNPTG (gamma subunit of GNPT) (clawed frog (Xenopus laevis)); experiment: crystal structure
crystal structure = biological target: the molecule itself; experiment: crystal structure

stoichiometry N [1]: 2
Molecule: clawed frog GNPTG (gamma subunit of GNPT) (natural protein)

B1: zebrafish GNPTAB minimal construct (catalytic and EF-hand domains) (domain or fragment)
chain: EVVVEWSRDQYHVLFDSYRDNVAGKSFQTRLCLPMPIDVVYTWVNGTDPKLIKEVTELKRSKRDPLIPECQGKQTPEKDKCYRDDNTASRFEDNEELRYSLRSIEKHAPWVRHIFIVTNGQIPSWLNLDNPRVSVVTHQDIFQNQTHLPTFSSPAIETHIHRIPGLSQKFIYLNDDVMFGKDVWPDDFYSHSKGQKVYLTWPVPNDTFADSLRYVNRLLNAQFGFTSRKVPAHMPHMIDRLIMQELQDTFPQEFDKTSSHRVRHSEDMQFAFSYFYFLMSAVQQLNISEVFDEIDTDHSGVLSDREIRTLATRIHELPLSLQDLTSLEQMLINCSKSLPSNLTHLHAVSPTQEAYYDPSMPPVTKGLVIHCKPITERIHKAFKDQNKYKFEIMGEEEIAFKMIRTNVSHVVGQLDDIRKNPRKFICLNDNIDHIHKDAGTVKAVLRDFYESMFPLPSQFELPREYRNRFLHMTELQEWRIYRDKL
modifications: N-linked glycans (up to five visible on each chain)
stoichiometry N (crystal structure): 2
